Measured values taken from the DeepSol protein solubility set.

Test: soluble on expression in E. coli; label from the status in PepcDB or PDB records

Row | Sequence | soluble on expression in E. coli
1 | MSLQSFRVQCPTSTITHNPNSNFPGGIKCQQISGGDGYSTMADGVQTYMFSFGPLSGLADIRNGLPGTQPASIFNTLGNPYTDTTFNGAVGLTPDPDSVPPNQIDGHVDPRPIMDIGVMNGNIPAPLMAIDEDDEFFLTLTNVGMIMRPDLFERHTVHFHGYPNASSFYDGVPDASVAINIGGSFTYYYLAPDAGTYFWHCHITPPEHLQMGMVGQIYVRPRQDRVPAGAALYTALVGQQADLRTACGTTDVLCSTPLPPTNAVKRLNNKNGTPTLYAYNDGDGSTAYDVEYPIQIHGFDPNFHFIGMTFNPEPFTDMKDKYFMLNGRSYPDTITPGPMTTPSSDGALHYSQPLPTVINIPAGGKALLRISNLDVTEYQTLASLGIPMHVIGINARLLRDMAGGDMTYYANSITLGGGESLDVLLDASDTSSYPRGSTFYLYTPNLDHLSNDAENFGGLMTEVHICGAVDPATKQCTEGHHHHHH | not soluble
2 | SMQEEDTFRELRIFLRNVTHRLAIDKRFRVFTKPVDPDEVPDYVTVIKQPMDLSSVISKIDLHKYLTVKDYLRDIDLICSNALEYNPDRDPGDRLIRHRACALRDTAYAIIKEELDEDFEQLCEEIQESR | soluble
3 | MGSDKIHHHHHHMKNTELEQLINEKLNSAAISDYAPNGLQVEGKETVQKIVTGVTASQALLDEAVRLGADAVIVHHGYFWKGESPVIRGMKRNRLKTLLANDINLYGWHLPLDAHPELGNNAQLAALLGITVMGEIEPLVPWGELTMPVPGLELASWIEARLGRKPLWCGDTGPEVVQRVAWCTGGGQSFIDSAARFGVDAFITGEVSEQTIHSAREQGLHFYAAGHHATERGGIRALSEWLNENTDLDVTFIDIPNPA | not soluble
4 | MSIKEQTLMTPYLQFDRNQWAALRDSVPMTLSEDEIARLKGINEDLSLEEVAEIYLPLSRLLNFYISSNLRRQAVLEQFLGTNGQRIPYIISIAGSVAVGKSTTARVLQALLSRWPEHRRVELITTDGFLHPNQVLKERGLMKKKGFPESYDMHRLVKFVSDLKSGVPNVTAPVYSHLIYDVIPDGDKTVVQPDILILEGLNVLQSGMDYPHDPHHVFVSDFVDFSIYVDAPEDLLQTWYINRFLKFREGAFTDPDSYFHNYAKLTKEEAIKTAMTLWKEINWLNLKQNILPTRERASLILTKSANHAVEEVRLRK | soluble
5 | MGSDKIHHHHHHMQTNDKVLKAFHSVKDVGSERSIVELGWLEVVSVKPPKIVVRLNLPNFAIAQRGQMAVDIRESIKSLEDIEEVQIEIGDSSPSKESPIGQAGHGSQSQGLTAIPKVKNVIAISSGKGGVGKSTVAVNLACALSQKGFKVGLLDADIYGPNTPYMLGVSEITPEVSGSGAEQKIIPIETCGIGMVSMGLLIDQNQPVIWRGPMLNGIIRQFLYQASWGERDFLIVDLPPGTGDAQLSLAQAVPMAGVIIVTTPQNVSLQDSRRGLAMFKQMNIPVLGVIENMTYFIPPDQPQKSYKIFGSGGGSQLAKENNVPLLSQIPIETDTFSGTGKDLPVVHTSRDSITAKVFLELAGTLCNALSVKQ | not soluble
6 | MKKIFMMVHELDVNKGGMTSSMFNRSKEFYDADIPADIVTFDYKGNYDEIIKALKKQGKMDRRTKMYNVFEYFKQISNNKHFKSNKLLYKHISERLKNTIEIEESKGISRYFDITTGTYIAYIRKSKSEKVIDFFKDNKRIERFSFIDNKVHMKETFNVDNKVCYQVFYDEKGYPYISRNINANNGAVGKTYVLVNKKEFKNNLALCVYYLEKLIKDSKDSIMICDGPGSFPKMFNTNHKNAQKYGVIHVNHHENFDDTGAFKKSEKYIIENANKINGVIVLTEAQRLDILNQFDVENIFTISNFVKIHNAPKHFQTEKIVGHISRMVPTKRIDLLIEVAELVVKKDNAVKFHIYGEGSVKDKIAKMIEDKNLERNVFLKGYTTTPQKCLEDFKLVVSTSQYEGQGLSMIEAMISKRPVVAFDIKYGPSDFIEDNKNGYLIENHNINDMADKILQLVNNDVLAAEFGSKARENIIEKYSTESILEKWLNLFNS | not soluble
7 | MNYFGKLQIRFSKSFLLLLIVSSLTACVDLTGARNTYIKKEKQPAISDVPNKKSKAQNMSSKKGEVHTMLGGLGIFSKGMYTLRDKVSEKYHITAHSTMWYNAGAVSRYIIDHYYQEKDHKPIILVGHSLGANEQIKVARNLNAAGVPVALLVTVDAVSQTIVPPNVKQALNVYKPGFVPMFSGLKLRAVDPQLTKIDNINVDSIKGIKVNHFTIDKDEILQAMIMDKVDKVLVDGNKKGA | not soluble
8 | MAHHHHHHMKNCMMADQRGRSILQYQPIVGDEALEFSRGLAPSTFGFRYAAYMDRNHFLPSGRTAVKHIADPTLAYVMTRYRQCHDFVHIITGCGRSIEEELAVKIFEWKHTGLPLGLLSLLGGAPRLSAAQWAHIRLYWEWASRNAPSSRHGEPAVPMYLNVPWEDMLAKEYDEVVAYTGITPLPDFLEKRQKH | not soluble
9 | MSFTVIIPARFASSRLPGKPLADIKGKPMIQHVFEKALQSGASRVIIATDNENVADVAKSFGAEVCMTSVNHNSGTERLAEVVEKLAIPDNEIIVNIQGDEPLIPPVIVRQVADNLAKFNVNMASLAVKIHDAEELFNPNAVKVLTDKDGYVLYFSRSVIPYDRDQFMNLQDVQKVQLSDAYLRHIGIYAYRAGFIKQYVQWAPTQLENLEKLEQLRVLYNGERIHVELAKEVPAVGVDTAEDLEKVRAILAANGSHHHHHH | soluble
10 | MGSDKIHHHHHHMALAKLPQLESVFLTDAGLETDFIFNRGIDLPYFASITLLQSSDGKIALEEYFRGFLELARRMRCGLILESATWRASPDWAEPLGLSQQELDTLNTSAIAILRDLRDEFGSTMPAVVISGCLGPRGDGYDPGKIMSEEGAEAYHRHQAEVLASAGVDQLTAITMTNVPEAIGIAKAAKSLAVPVAISFTVETDGRLPTGDRLSDALRAVDQATASTPAYYMINCAHPSHFAAVLEDGADWVNRIGGLRANASRCSHAEVDAMSELDRGNPEELAALHSELRLRFPHINVLGGCCGTDLDHITAIAEACL | not soluble
11 | MNLKAMDAILEDCCDIVCSDYLPSAMIKSMCIVAERINNLNKAVSLFTSNPAKAVGIYDERGSIKENKKADLVLVDIDSEYPKVVNTIVNGKTVYKRELEHHHHHH | not soluble
12 | MNFMEIGTPLFEGAKKLLWLGGGELGKEMVIEAQRMGIETVVVDRYDMAPAMHVAHRKYVVNMLDGNAIKSIIKKENPDAIITEIEAINTDALLELESEGYKVIPNAKAVKICMNRIELRKLAAEKVKVPTTQYGFAENPEEVKKICKDIGYPCIIKPEMSSSGHGHEVVYNESEVEQKFKEAITHARGKSEQVIVEEYVKIDRELTVLTYRYLDDKGVVTKTITPIEHQRPSDVYYYVESWHPSTVDKDIIERAQEYATRVVNELGGFGIFGVEIIVSGNRVLFSEVSPRPHDTGLVTMASLDINEFQIHVRSALGLPTPEVKIVSPAAAHVILANNEGWAPKFLNVEKALQIPGVQIRLFGKPSTYYKRRMGVVLATGNTVEEAKEKARKAASLVLVT | soluble
13 | MGSDKIHHHHHHGDIYNGTTMGVTFATGTQSVSFPSTGYEGFDVEVLRAKSSEATTINLSATLVVGDKEQELPASITVPSSVSFAAGEFKTNIHVTVGDITPGQNYKVKISLPEEMVTIDQTSDKVITVYRDYTFSSLGTGTFKSAAMAEEGEDFTTWEVEVQKADQISWYKAMNLYEKGYNIVFKVNEANEVTVESQPAWKHASYGEVFVSGKGALEDGVITVKLSHDVPNVGGFGEFKEILYLPAK | not soluble
14 | MKGLFVTIEGPEGSGKTTLIQSLLPYFEQKEQKVMATREPGGIAISEDIRTILHKQEYTMMEARTEALLYAAARRQHLVEKVMPALNEDYLVLCDRFIDSSLAYQGYARGLGMDKVFEINRFATEDCMPSLTIYLDIEPEVGLARIAKDAGREVNRLDMEDISFHKRVREGYLQVVERFSDRIVLVNADQPMEKLIEEVIQVIEDKLL | soluble
15 | MGSDKIHHHHHHMTDERIHILRDILLELHNGASPESVQDRFDATFTGVSAIEISLMEHELMNSDSGVTFEDVMELCDVHANLFKNAIKGVEVSDTEHPGHPVRVFKEENLALRAALIRIRRLLDTYESMEDEEMLAEMRKGLVRQMGLVGQFDIHYQRKEELFFPIMERYGHDSPPKVMWGVDDQIRELFQTALTTAKSLPEVSISSVKEAFEAFATEFESMIFKEESILLMILLESFTQDDWLQIAEESDAYGYAIIRPSEKWVPERQSFIEEKIAEEPVQLDTAEGQVQQVIDTPEGHFTITFTPKEKEAVLDRHSQQAFGNGYLSVEQANLILNHLPMEITFVNKEDIFQYYNDNTPADEMIFKRTPSQVGRNVELCHPPKYLDKVKTIMKGLREGSKDKYEMWFKSESRGKFVHITYAAVHDEDGEFQGVLEYVQDIQPYREIDTDYFRGLE | not soluble
16 | SSWFRAAPENASPGDQDVFDEEADESLLAQREWQGHMRKRVQEGYRDGLDAGKALTLQRGFNQGYKEGADVIINYGLLRGTLSALLSWCHLHGNSSTLISKISNLLDTVDQCEECVLRRLKSVTSQPRVTDLLDAIEDMDLCHVVPSDQAKGDSNAEINTDSDSPNGMGCSHPEHCRPKEHAHLEKPSLSWILEQTSSLVKQLGVPADILQHLRQL | soluble
17 | MGHHHHHHSHMKVQGAGQLRLSIDAQDRVLLLHIIEGKGLISKQPGTCDPYVKISLIPEDSRLRHQKTQTVPDCRDPAFHEHFFFPVQEEDDQKRLLVTVWNRASQSRQSGLIGCMSFGVKSLLTPDKEISGWYYLLGEHLGRTKHLKVARRRL | soluble
18 | MGSSHHHHHHGGTGENLYFQGGSGLRRTEIALKKGWTHNPGHTRRGGKNLAWRPKISDAKLSQFVPLALVHPRRHPNNWQERQFNALGYTKWPKDIGFYNAGDNFEVTPEAAWRLYVHARDEPYWGKLHCEKTIITLLPVVEKAPKENMERVLDVFRHYLKRYGADHYIYNAVMQAAAFAKNYEQAEQLFKEMETLGLEPNAQSYVNMMLAAKLCGLPPEKSEAYFKRAVKDGAMQSVMRMDTEFRMWMDQLDRLGSFTASSGYLSVNEEGAKPMPRDMWAIWGWHRSESKFISRRDLIMQQVRARVHSGKELVGTVYTKTRRQPWAKFNGMLRHDYNGPSYRAPTIFPDAPEYTNEAGHKAF | soluble
19 | MEVPEIEKQIGINLYSTDTTGLGGQLRQEIEDFIVKEITNREEGEEGKYLIVELTKRDWDTHHLTRTLSRILQVSQKRISVAGTKNKRALTTQKISIFDTDASEIEKIHLKDIELKVLGRSRKSVELGDLWGNDFRITVRNIENSPEETEALLKKTTDEILAQGGVPNFFGIQRFGSVRPVTHLVGKAIVEGNFEKAALLYIAEPFPEEPEETKNARQFVKDTLDFKEGLKTYPLRLGHERAMMNHLIANPEDYSGSFRVLPQNLYRMFVHGYQSYIYNIILCRRIEAGIPLNRAVEGDIVCFRNEVGLPDSSKTEKVTSETVNAMNRLLKLGRAFITAPLPGYNTEFASGIPGEIENGVLKELGVSLEGFNIEKFPEMSSKGTRREVLLEVKPKFEAGEDELNPGKSKAVLEFMLPKGSYATTVLREYMKVNPLQMSLEHHHHHH | soluble
20 | MKSVGLITEYNPFHNGHQYHINQSKKLTNADVTIAIMSGNFVMRGEPAIYNKFTRAKMALSTADLVIELPATASLSSGDHFAELAVKVADYMSVDTIAFGSENNDIKTLKQLAHSINEIEQSESFSQKVKEGKSYPRIISELLEHHEALASPNNILGISYLKAIAKNAKNINAISIKRENAQHHDSLIQHHQFASGTSIRTSIISQDDHWHHVVPKDIQHLYVTPHITLNQIFPYLKYQIIAMTTDSLKNIYTVTEGFENRLKSNIYEATDFHHFVKLLKTKRYTYTHIQRLLMNVLLNIKPTDVTSNIHAVKVLAMNDRGRQYLKHLKTAFPERQYITNINKSNAHYFTNEIKATHIYNAISGQQQTDFNTPVIQQYR | not soluble
21 | MTKLPQTQGVLNFIQKYLYNSTNYNFEDGSTQAINVPYPDSGVYENYILHYPDATSTELLDINIDQLYSEVMVLTDPKIERAYEYILEERDPGTSSTNILVTVGVE | not soluble
